Results as given in the DeepSol protein solubility set.

experiment: soluble on expression in E. coli; label from the status in PepcDB or PDB records

Row | Sequence | soluble on expression in E. coli
1 | MSRDPTYTINEHDLSFADGRFYVTFKADKSSETVRLNSSCLGNTIIKKLQVEDDNTMHDFVKPKVTTQQAFGLAQQVKELDLQLKDPKSDLWGKIKFNNKAMLVEYANKEMSSAIAQSAEQILLQVKSIDDERYSKFEQTLNGIKQTVKSESVESARTQLASMFDSRISGLDGKYSRLSQTIDSLSSRLDDGVGNYSTLSQKVSGIDLRVSNAANDVSRLSQTAQGLQSQITNANQNYSSLSQTVQGLQTTVRDNQSNATSRINQLSDLISTKVSKGDVETTIAQSYDKIAFAIRDKLPASKMSGSEIISAINLDRSGVKITGKNITLDGNSYISNAVIKDAHIANMDAGKINTGYLNANRIATEAITGEKIKMDYAFFNKLTANEGYFRTLFAKDIFATSVQSVTLSASKITGGVLAATNGASQWDLNNANMTFNRDATINFNSKNNALVRKDGTHTAFVHFSNATPKGYRGSALYASIGITSSGDGIDSASSGRFAGLRSFRYATGYNHTAAVDQTELYGDNVLIADDFNINRGFKFRPDKMEKVLDMNDLYAAVVALGRCWGHLANVGWNT | not soluble
2 | MSRFPRRFIDDSSMEDAGISLCPSIHYRPINPNDLDRLEQIHRDIFPIKYESEFFQSVVNGVDIVSWAAVDRSRPDDHSDELIGFVTAKFVLAKDSEIDDLIHYDSSKGEETLIYILTLGVVETYRNRGIAMSLISEVIKYASGLSVCRGVYLHVIAHNNAAICLYKRLMFRCVRRLHGFYLINRHHFDAFLFVYFINGSRTPCSPLEVAMFVVNYMKSGIKSVASKLANKDEKGLKWLFCKDTDCV | soluble
3 | MSRGSGILPDESMFAEFKRQCLSTENWVNKYDKNDMEVWVEQAPLSASINNKGNYSKVHKIRCQINIKDVSAATMYDVLHDGQYRKTWDPTMLESFDIARLAHNADVGYYSWICPKPLKNRDVVTLRSWQASENEYVIINFSVKHPKYPPRKDLVRAVSLMTGYLIKPTGPQSCIFTYLSQADPKGSLPKWVVNKASQVLAPKVLRSAHKAGQNYPAWKAANSPDHKPWLYPIQSELAMMDPAELSIQRGDSLENVDESSTRDAQENEDSS | not soluble
4 | MSRGVKRVTAITNREREAVLRIEFPNVDVTDIDFDLFQARESTDKPLDVAAAIAYRLLLGSGLPQKFGCSDEVLLNFILQCRKKYRNVPYHNFYHVVDVCQTIYTFLYRGNVYEKLTELECFVLLITALVHDLDHMGLNNSFYLKTESPLGILSSASGNKSVLEVHHCNLAVEILSDPESDVFGGLEGAERTLAFRSMIDCVLATDMARHSEFLEKYLEIMKTSYNVDDSDHRQMTMDVLMKAGDISNVTKPFDVSRQWAMAVTEEFYRQGDMEKERGVEVLPMFDRSKNMELAKGQIGFIDFVAAPFFQKIVDACLQGMQWTVDRTKSNRAQWERVLEARSTGAS | soluble
5 | MSRIGRIPVAIPKGVDVKLGDNNTLTVKGQKGTLTKQFHKDMIIKVEGDKIIVQRPSDEKKHKALHGLTRTLINNMVIGVTQGYEKALEINGVGYRAQKQGKKLILTLGYSHPVEMEEPQGITVEVPAPNKIVVKGADKQAVGEFAAKIRSKREPEVYKGKGIKYEDEVIRRKEGKAGGKGKK | not soluble
6 | MSRKFPSFIVDAFTTKSFAGNPAAVCLIPEVFKDQEYLKIAAEFNLSETAFPVPIGSTDFKTCSQFSLRWFTPKTEVPLCGHATLATSHVLFNEVGNVNKEIKFDTQSGVLIAKRDEKGNVEMNFPEYDLASVKFNDTPNPLQGIFSEFEAPSFLFEVIKCVVPTEMIIESVVYSSKSRKLIVIVDPETTKFELEAVRIDCSKMLEIHDGSFVRGLAISLRPSNPMAQGFVDSSDEPYDYACRYFAPWVGIDEDPATGSAQCVMGPFWSKMLGKNELYAFQAFPTRGAQFRIRLQDDRVILNGPSVTVLRGELALN | not soluble
7 | MSRKKFMESVGATCSNWNWSWSFVNHEERFVVFGHWDVHKDGLIFDESWKGPGRKQSLEHISLIQNNGYRLKTFPMQYDQTETGTAKIKSFDWILEEKHLAGVDGLWYALNYSESVDITSIEEVVHPETYIEGATKEISVNAYERNPDARAKCILHYGCKCYVCKFDFQEVYGDIGKGFIHVHHEVSLAEIKKEYSVDPIKDLKPLCPNCHGIIHRTHPPISVDSLINLLRSRNLEHHHHHH | soluble
8 | MSRKYFYFDYDYYGMSFCEEEITTEPEEKVAYTSNSGGFADEVTGIPKEGHQSSIGEHSCVMPNTQDTGREEPEETSKVAETSEQSLFRIPRKAYRFTPGQLWELQAVFVENQYPDALKRKELAGLLNVDEQKIKDWFNNKRAKYRKIQREILGGKNITPTQEELRMKTLVESKKIIIFQEQEGDGLFWEHQNIDTQNSPLSLLFS | soluble
9 | MSRMIFLFLIPVVTSCIPTQQIEMPCPTDWEKFERPSGPWCVKLFVGLYLQGNRNEASARCAAEGAVLSGVQNQAELNAMTRQFTKLRYGYFWVGAMRKTSCLMSQLTATCTALNSFEWTDGSTTGTDGFIWKTGDPNNYLYNLYE | not soluble
10 | MSRNHFNELSPCEALIMKLIWEAPQDIPVQELIDQLRDDYGKEYARTTVVTFVGKLKDKRFVDTYRKGKSAFIHPLRSEEEYRRQLLKEEADFWFNGKAVDMVASICESQKLEDDEIKRIKKILNGLNK | not soluble
11 | MSRQTEIVRRMVSAFNTGRTDDVDEYIHPDYLNPATLEHGIHTGPKAFAQLVGWVRATFSEEARLEEVRIEERGPWVKAYLVLYGRHVGRLVGMPPTDRRFSGEQVHLMRIVDGKIRDHRDWPDFQGTLRQLGDPWPDDEGWRP | soluble
12 | MSRSQLTILTNICLIEDLETQRVVMQYRAPENNRWSGYAFPGGHVENDEAFAESVIREIYEETGLTIQNPQLVGIKNWPLDTGGRYIVICYKATEFSGTLQSSEEGEVSWVQKDQIPNLNLAYDMLPLMEMMEAPDKSEFFYPRRTEDDWEKKIF | soluble
13 | MSRTKDQAAAVLPTLLSALRLPSISRNWKHLTDTADRDGWPAANLLACLLEIEMAERASRRIQRHREQSGLPAGKTFATFDFDFPSGIRKPHLLSLATGEGWIESGGNILIFGQSGTGKTHVIAAIGHALIDAGRRVLFSTTTEMVQKLQAARRELSLPSMLDKLDKYDLIVLDSCAVRRDVESPSLGATFARRVARATQHKAAALEHHHHHH | not soluble
14 | MSRVAPRDSAAQAASAVAESVRYQGRKASRQGSEQRRQAILDAAMRLIVRDGVRAVRHRAVAAEAQVPLSATTYYFKDIDDLITDTFALFVERNAEALSAFWSSVEGDLQEMAAVLADDPGARGSLVERIVELAVQYVQVQLTERREHLLAEQAFRQEALLNPRLRELADAHQRILSLGAVHFFQVLGSGQPEQDAKVLTSIILQMEYQGLVDGVEQLAVDEMRAILRRYLNLVMGL | soluble
15 | MSRVITHGQVKRVSETNAYAVPVESLTFPTLQPIGPLPPAGTTGVLITQRVPNTPYTPAPPPPPPVPANQTIIYEDGNNNNTIYMRVVSVVGPAKYNIEVL | not soluble
16 | MSRVKLGHHYYYIVTPQDLRDGKYKGKNIVIEGEIKDKPIIEFLPMELPSYRTIFRVSGFKVEFSGTPNVRMGEKVKVYGVFVGDGIIARAIETEGAIYITEE | soluble
17 | MSSASGLRRGHPAGGEENMTETDAFYKREMFDPAEKYKMDHRRRGIALIFNHERFFWHLTLPERRGTCADRDNLTRRFSDLGFEVKCFNDLKAEELLLKIHEVSTVSHADADCFVCVFLSHGEGNHIYAYDAKIEIQTLTGLFKGDKCHSLVGKPKIFIIQACRGNQHDVPVIPLDVVDNQTEKLDTNITEVDAASVYTLPAGADFLMCYSVAEGYYSHRETVNGSWYIQDLCEMLGKYGSSLEFTELLTLVNRKVSQRRVDFCKDPSAIGKKQVPCFASMLTKKLHFFPKSN | soluble
18 | MSSDALPLLSIRGVGKTYAQPVLAEIDLQLFGGEVLALTGENGAGKSTLSKIVGGLERPGAGSLELLGRPYAPASRREAEALGVRMVMQELNLLPTLSVAENLFLHDLPRRAGWIDRRRLRAAAREAMAQVGLEAIDPDTLVGDLGIGHQQMVEIARNLIGDCRLLILDEPTAMLTAREVDMLFEQVERLRERGVAIVYISHRLEELARISQRIAVLRDGRLVCVEPIERYDADQLVTLMVGRDLGERFDLGPRQTGAPLLRVERLSRRGKVHEVSFEVRAGEIFGISGLIGSGRTELLRLIYGADRADGGQVLLGDPPQRLSLRSPADSVRQGVALITEDRKGEGLLLDQSISANLALGNLPALARHGVIDRRREEALARRQVEALRVRCADTAQAVGELSGGNQQKVVIGRWLERDCQVLLFDEPTRGIDVGAKFDIYALLAELTRRGKALVVVSSDLRELMLICDRIGVLSAGRMVDTFERDAWTQDALLAAAFAGYK | not soluble
19 | MSSDLYANAVLYSEISQRNPELVSKMFNEATRKKLDAFLKDNEAPKLKDIVTDNVFKKRKRIASSSGNEPPVKKMAAKDSSDSDSSDDGAVKKNGVQKPVNVAAKKSATPVQKKAESSSSSDSDAPAKKLTPVKKPAQTPAQKKAASSSDSDSDDEPPKKAPAVTTKVAPKPMAKKQDTSDSDSDSEDSDDGKSKKANPVKVTPVANVLQKVVAKKAASSSSDSSDDEKKPAAKPTPAKPTPKPVVKKAESSSDSSDDEKKPVAKPAPAKATPKPAAKKADSSSDSSDDEAPAKKTPAKAAPKPVAKKAESSSDSSDDEKKPAAKPTPAKATPKPVAKKAESSSDSSDDEKKPVAKPAPAKATPKPVAKKAESSSDSSDDEKKPAAKPTPAKATPKPVAKKAESSSDSSDDEKKPVAKPTSAKATPKPAAKKADSSSDSSDDEAPAKKTPAKAAPKPASKKAESSSDSSDDEKPAAKSTPAKITPKPTAKKVASSSSDSSDDEKKPAAKPTPANATPKPVAKKAESSSDSSDDEKKPVAKPTSAKATPKPAAKKADLSSDFSDDEAPAKKTPAKAAPKPASKKAESSSDSSDDEKPAAKSTPAKTTPKPTAKKAASSSSDSSDDEKKPVAKPTSAKATPKPAAKKADSSSDSSDDEAPAKKTPVKPTPVKIVAKKVDSSSDSSDDEKKPTKATPVKVTPKSVTKKAAASSSDSSDDEKKPVVKQTPNVVPKKEKAASSSDDSSDDEKKPTAKPTPKATPKQSAKKADSSDDSSDDEAPAKKTPAKSTPAKTAVKKEASSSSDDSSDDEKTKKKSATTPAKSTPKTALKKAESSDSSDDDEDLPKPSKAVTPRPQRADSEESAETEESSSRTPALKAKPLATSTEKAVYENRKRKSSPFRRVQMTKDSVSEKFRNNQHDSHFDQWGQRANESLGKVVGKAFRHEKTKKKKGSYGGGPINQSINSIKFSDSDD | soluble
20 | MSSDNLVENIIAEVLGKVGDLKTPSAASQPGISQQEPAIPRKLCGLTEFVGTATGDSIGLVIANVDSALLDAMHLEKKYRSIGILGARTGAGPQIMAADEAVKATNTEVVAIELARDTKGGAGHGSLVLFGGQDVSDVKRAVEVALGELERTFGDIYANAAGHVELQYTARASYALEKAFGAPLGRACGVIVGAPAAIGVLMADTAIKSANVDVVAYNSPAKGTSFTNEVILIVSGDSGAVRQAVRSARDVGLTLLETMGGKAPSATTPYI | not soluble
21 | MSSDRSGAAAKASAGQCSSDRPLAVAADPKQYSMALCPDTPSYSLCGRLKSEWDKQSAAASPGPAAYDVPGYFDTLDPQQQQRHLWSGPVPGVHLGIRTVLPESREKAGVPGPGAYQLVRFGDELPRAREPLITRSSRRGRGAAADTPGPGAYDDPTSIAYRADQVRRKRLFTQCSTFGGRWCRREFHTAGPGPAAYNTLVATKLLEKNQRHAPRLVRRQPPLDRQSVAEAAAARMKVSGPPNPQAFPTLPSDFDFDFRKGKTIGGKPHEPLARTAPSHLTQAADDKPSGSRAFWESPPPPGGRFAATPFDPQSHSLAAEKAGTNAARLAEAGNCKPGPGSYNVEVDPTARRVPASLFGRTLSAKSVSVENGVPGPGHYRVVDDTSGRGTIFYKGDFHPRGCSGQGGSAAESLGVGPGAHYNDDTMYSNSINGDRAHNKGFTMGIRYPARATYQHCAPYDETTNINCVYDDELNWVVRPNQHLPLIRRGKL | not soluble
